Data reported in article PMC10817169, “The universal suppressor mutation restores membrane budding defects in the HSV-1 nuclear egress complex by stabilizing the oligomeric lattice” (PLOS Pathogens, 2024).

Molecular target: T1, UL31 1-306 R229L_(UL31) (HSV-1, UniProt P10215 1-306, R229L)
T1 construct: also called SUP_(UL31); UL31 chain of NEC220-SUP_(UL31)
T1 sequence: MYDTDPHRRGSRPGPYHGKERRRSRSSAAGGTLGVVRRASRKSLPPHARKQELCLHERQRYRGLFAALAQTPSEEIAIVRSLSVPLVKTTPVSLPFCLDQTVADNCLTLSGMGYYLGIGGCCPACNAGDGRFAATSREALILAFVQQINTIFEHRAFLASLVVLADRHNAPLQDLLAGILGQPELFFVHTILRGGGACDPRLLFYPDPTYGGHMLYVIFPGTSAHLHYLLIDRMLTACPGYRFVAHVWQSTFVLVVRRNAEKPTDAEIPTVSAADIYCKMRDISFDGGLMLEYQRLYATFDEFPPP
Assay: cryo-EM structure; cryoET with sub-tomographic averaging of membrane-bound coats; 1 mg/mL NEC with 400 and 800 nm LUVs (POPC:POPS:POPA = 3:1:1), 30 min on ice
Details: both partners purified

B1: UL34 1-220 D35A_(UL34)/E37A_(UL34) (domain or fragment)
chain: MAGLGKPYTGHPGDAFEGLVQRIRLIVPSTLRGGAGAAGPYSPSSLPSRCAFQFHGHDGSDESFPIEYVLRLMNDWAEVPCNPYLRIQNTGVSVLFQGFFHRPHNAPGGAITPERTNVILGSTETTGLSLGDLDTIKGRLGLDARPMMASMWISCFVRMPRVQLAFRFMGPEDAGRTRRILCRAAEQAITRRRRTRRSREAYGAEAGLGVAGTGFRARGD
notes: also called DN_(UL34); UL34 chain of NEC220-DN_(UL34)/SUP_(UL31); not shown: GST, N-terminal, cleaved
binding result: binds
